Reference: patent US20150259426A1 (Novartis, published 2015)

Molecular target: cell-bound human DR5 (Colo205 and other human cell lines) (human, UniProt O14763 56-440)
Assay: cell-based or functional assay

fold improvement of IC50, penta against tetra, A549 [fold]	fold improvement of IC50, penta against tetra, BxPC-3 [fold]	fold improvement of IC50, penta against tetra, Colo205 [fold]	fold improvement of IC50, penta against tetra, H226 [fold]	fold improvement of IC50, penta against tetra, H2122 [fold]	fold improvement of IC50, penta against tetra, Jurkat (72) [fold]	fold improvement of IC50, penta against tetra, M30 [fold]	fold improvement of IC50, penta against tetra, MiaPaCa-2 [fold]	fold improvement of IC50, penta against tetra, Panc-1 [fold]	fold improvement of IC50, penta against tetra, T24 [fold]	Binder	IC50, cell survival, A549 [pM]	IC50, cell survival, BxPC-3 [pM]	IC50, cell survival, Colo205 [pM]	IC50, cell survival, H226 [pM]	IC50, cell survival, H2122 [pM]	IC50, cell survival, Jurkat (72) [pM]	IC50, cell survival, M30 [pM]	IC50, cell survival, MiaPaCa-2 [pM]	IC50, cell survival, Panc-1 [pM]	IC50, cell survival, T24 [pM]
1	6	5	5	7	5	1	5	22	10	4E6-Hu penta (4E6 hu pentamer) (other) EVQLLESGGGLVQPGGSLRLSCAASGRTFGSIRVGWFRQAPGKGREFVSAINRNDGTTYYADSVKGRFTISRDNSKNTVYLQMNSLRPEDTAVYYCAAGLQYNRAADRVPVGAVYWGQGTLVTVSSGGGGSGGGGSGGGGSGGGGSGGGGSGGGGSGGGGSEVQLLESGGGLVQPGGSLRLSCAASGRTFGSIRVGWFRQAPGKGREFVSAINRNDGTTYYADSVKGRFTISRDNSKNTVYLQMNSLRPEDTAVYYCAAGLQYNRAADRVPVGAVYWGQGTLVTVSSGGGGSGGGGSGGGGSGGGGSGGGGSGGGGSGGGGSEVQLLESGGGLVQPGGSLRLSCAASGRTFGSIRVGWFRQAPGKGREFVSAINRNDGTTYYADSVKGRFTISRDNSKNTVYLQMNSLRPEDTAVYYCAAGLQYNRAADRVPVGAVYWGQGTLVTVSSGGGGSGGGGSGGGGSGGGGSGGGGSGGGGSGGGGSEVQLLESGGGLVQPGGSLRLSCAASGRTFGSIRVGWFRQAPGKGREFVSAINRNDGTTYYADSVKGRFTISRDNSKNTVYLQMNSLRPEDTAVYYCAAGLQYNRAADRVPVGAVYWGQGTLVTVSSGGGGSGGGGSGGGGSGGGGSGGGGSGGGGSGGGGSEVQLLESGGGLVQPGGSLRLSCAASGRTFGSIRVGWFRQAPGKGREFVSAINRNDGTTYYADSVKGRFTISRDNSKNTVYLQMNSLRPEDTAVYYCAAGLQYNRAADRVPVGAVYWGQGTLVTVSS	> 10000	5	0.7	27.2	0.8	3.6	> 10000	3.8	10.5	4.3
1	3	3	14	2	4	1	4	35	7	11H6-Hu penta (11H6 hu pentamer) (other) EVQLLESGGGLVQPGGSLRLSCAASGTFDKINNMGWYRQAPGKQRDLVAQITPGGITDYADSVKGRFTISRDNSKNTLYLQMNSLRPEDTAVYYCNAEILKRAYIDVYVNYWGQGTLVTVSSGGGGSGGGGSGGGGSGGGGSGGGGSGGGGSGGGGSEVQLLESGGGLVQPGGSLRLSCAASGTFDKINNMGWYRQAPGKQRDLVAQITPGGITDYADSVKGRFTISRDNSKNTLYLQMNSLRPEDTAVYYCNAEILKRAYIDVYVNYWGQGTLVTVSSGGGGSGGGGSGGGGSGGGGSGGGGSGGGGSGGGGSEVQLLESGGGLVQPGGSLRLSCAASGTFDKINNMGWYRQAPGKQRDLVAQITPGGITDYADSVKGRFTISRDNSKNTLYLQMNSLRPEDTAVYYCNAEILKRAYIDVYVNYWGQGTLVTVSSGGGGSGGGGSGGGGSGGGGSGGGGSGGGGSGGGGSEVQLLESGGGLVQPGGSLRLSCAASGTFDKINNMGWYRQAPGKQRDLVAQITPGGITDYADSVKGRFTISRDNSKNTLYLQMNSLRPEDTAVYYCNAEILKRAYIDVYVNYWGQGTLVTVSSGGGGSGGGGSGGGGSGGGGSGGGGSGGGGSGGGGSEVQLLESGGGLVQPGGSLRLSCAASGTFDKINNMGWYRQAPGKQRDLVAQITPGGITDYADSVKGRFTISRDNSKNTLYLQMNSLRPEDTAVYYCNAEILKRAYIDVYVNYWGQGTLVTVSS	> 10000	4.6	1.2	12.4	1.7	1.7	> 10000	3.1	6.7	3.1
